Patent publication US20130064825A1 (Amgen, published 2013)

B1: mouse PCSK9, 8xHIS tagged (enzyme, UniProt Q80W65 35-694, looked up)
chain: QDEDGDYEELMLALPSQEDGLADEAAHVATATFRRCSKEAWRLPGTYIVVLMEETQRLQIEQTAHRLQTRAARRGYVIKVLHIFYDLFPGFLVKMSSDLLGLALKLPHVEYIEEDSFVFAQSIPWNLERIIPAWHQTEEDRSPDGSSQVEVYLLDTSIQGAHREIEGRVTITDFNSVPEEDGTRFHRQASKCDSHGTHLAGVVSGRDAGVAKGTSLHSLRVLNCQGKGTVSGTLIGLEFIRKSQLIQPSGPLVVLLPLAGGYSRILNAACRHLARTGVVLVAAAGNFRDDACLYSPASAPEVITVGATNAQDQPVTLGTLGTNFGRCVDLFAPGKDIIGASSDCSTCFMSQSGTSQAAAHVAGIVARMLSREPTLTLAELRQRLIHFSTKDVINMAWFPEDQQVLTPNLVATLPPSTHETGGQLLCRTVWSAHSGPTRTATATARCAPEEELLSCSSFSRSGRRRGDWIEAIGGQQVCKALNAFGGEGVYAVARCCLVPRANCSIHNTPAARAGLETHVHCHQKDHVLTGCSFHWEVEDLSVRRQPALRSRRQPGQCVGHQAASVYASCCHAPGLECKIKEHGISGPSEQVTVACEAGWTLTGCNVLPGASLTLGAYSVDNLCVARVHDTARADRTSGEATVAAAICCRSRPSAKASWVQ
notes: also called mPCSK9-8xHIS; mPCSK9; not shown: 8xHIS tag
B2: 16F12, anti-PCSK9 huIgG4 (antibody, V domains shown)
VH: QVHLVESGGGVVQPGRSLRLSCAASGFTFNSFGMHWVRQAPGKGLEWVALIWSDGSDEYYADSVKGRFTISRDNSKNTLYLQMNSLRAEDTAVYYCARAIAALYYYYGMDVWGQGTTVTVSS
VL: QSVLTQPPSVSAAPGQKVTISCSGSSSNIGNNFVSWYQQLPGTAPKLLIYDYNKRPSGIPDRFSGSKSGTSATLGITGLQTGDEADYYCGTWDSSLSAYVFGTGTRVTVLQ
notes: also called 16F12.1
B3: 21B12, anti-PCSK9 huIgG4 (antibody, V domains shown)
VH: QVQLVQSGAEVKKPGASVKVSCKASGYTLTSYGISWVRQAPGQGLEWMGWVSFYNGNTNYAQKLQGRGTMTTDPSTSTAYMELRSLRSDDTAVYYCARGYGMDVWGQGTTVTVSS
VL: QSALTQPASVSGSPGQSITISCTGTSSDVGGYNSVSWYQQHPGKAPKLMIYEVSNRPSGVSNRFSGSKSGNTASLTISGLQAEDEADYYCNSYTSTSMVFGGGTKLTVLQ
notes: also called 21B12.1; 21B12 IgG4
B4: 11F1, anti-PCSK9 antibody (antibody, V domains shown)
VH: EVQLVESGGGLVQPGGSLRLSCAASGFTFSNYWMSWVRQAPGKGLEWVASIKQDGSEKYYVDSVKGRFAISRDNAKNSLFLQMNSLRAEDTAVYYCARDLVLMVYDIDYYYYGMDVWGQGTTVTVSS
VL: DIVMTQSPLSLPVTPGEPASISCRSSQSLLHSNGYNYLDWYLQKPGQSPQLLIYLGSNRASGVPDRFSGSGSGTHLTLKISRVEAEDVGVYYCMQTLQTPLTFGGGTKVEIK
notes: it was detected with anti-human Fc

Tests used:
16F12, anti-PCSK9 huIgG4 = target: B2; assay: KinExA; mPCSK9 is varied, 16F12 is fixed at 100 pM; free 16F12 measured
31H4, anti-PCSK9 huIgG4 = target: T1, 31H4, anti-PCSK9 huIgG4; assay: KinExA; mPCSK9 is varied, 31H4 is fixed at 100 pM; free 31H4.1 measured
T1 construct: also called 31H4.1; 31H4 IgG4
T1 sequence (VL, as listed by the source, chain 2 of 2, other chains not shown): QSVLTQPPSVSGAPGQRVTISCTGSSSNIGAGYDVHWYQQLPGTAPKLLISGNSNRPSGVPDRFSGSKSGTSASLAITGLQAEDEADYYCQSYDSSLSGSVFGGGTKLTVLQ

[1] = target: B1; assay: SPR (Biacore 2000), antibody amine-coupled on CM5 chip, PCSK9 injected, pH 7.4
[2] = target: B1; assay: KinExA solution equilibrium titration; title: 100pM 16F12 + (1pM ~ 10nM) mPCSK9
[3] = target: B1; assay: Biacore solution equilibrium assay: PCSK9 mixed with 21B12.1, free PCSK9 read on immobilised 21B12
[4] = target: B1; assay: SPR (Biacore 2000), antibody amine-coupled on CM5 chip, PCSK9 injected, pH 7.4; BIAcore (Table 7.1), not the assay of Table 8.2
human PCSK9 D374Y mutant [5] = target: T2, human PCSK9 D374Y mutant (human, UniProt Q8NBP7 31-692, biotinylated (sites not given) in the ELISA formats); assay: blocking ELISA: biotinylated D374Y PCSK9 (20 ng/mL) pre-incubated with 11F1, added to plate-captured LDLR; blocked ligand LDLR; streptavidin-HRP, OD450
T2 construct: also called D374Y PCSK9; huPCSK9 (D374Y)

[6] = target: T3, human PCSK9 (proprotein convertase subtilisin/kexin type 9), wild type (human, UniProt Q8NBP7 31-692); assay: competition ELISA: biotinylated WT PCSK9 (100 ng/mL) pre-incubated with 11F1, binding to captured LDLR; average of 3
T3 construct: also called hPCSK9; WT PCSK9

[7] = target: T3, human PCSK9 (proprotein convertase …); assay: competition ELISA: biotinylated WT PCSK9 (100 ng/mL) pre-incubated with 11F1, binding to captured LDLR
[8] = target: T3, human PCSK9 (proprotein convertase …); assay: blocking ELISA: biotinylated WT PCSK9 (100 ng/mL) pre-incubated with 11F1, added to plate-captured LDLR; blocked ligand LDLR; streptavidin-HRP, OD450
furin (R&D Systems) = furin (R&D Systems) (UniProt P09958 108-715, limits assumed); assay: competition ELISA: 0.4 ug/mL 11F1 pre-incubated with soluble proprotein convertase (furin inhibitor present), then added to plate-captured biotinylated PCSK9; OD450
furin (R&D Systems), sequence (P09958 108-715 limits assumed): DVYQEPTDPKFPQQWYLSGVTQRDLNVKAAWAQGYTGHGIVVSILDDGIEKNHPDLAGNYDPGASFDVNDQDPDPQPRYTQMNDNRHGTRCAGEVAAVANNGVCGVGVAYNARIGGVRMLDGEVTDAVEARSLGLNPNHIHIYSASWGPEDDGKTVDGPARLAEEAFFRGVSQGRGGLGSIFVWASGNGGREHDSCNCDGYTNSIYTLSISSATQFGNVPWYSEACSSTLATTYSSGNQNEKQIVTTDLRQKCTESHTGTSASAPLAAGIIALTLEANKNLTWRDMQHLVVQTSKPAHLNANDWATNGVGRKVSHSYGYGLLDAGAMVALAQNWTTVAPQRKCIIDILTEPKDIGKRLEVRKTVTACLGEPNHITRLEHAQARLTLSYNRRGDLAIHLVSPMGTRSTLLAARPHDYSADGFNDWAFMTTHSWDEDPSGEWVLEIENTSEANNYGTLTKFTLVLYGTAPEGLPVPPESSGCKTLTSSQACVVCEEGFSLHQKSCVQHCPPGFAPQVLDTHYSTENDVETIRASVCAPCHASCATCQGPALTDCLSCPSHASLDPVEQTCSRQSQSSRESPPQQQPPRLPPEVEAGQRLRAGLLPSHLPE

[9] = target: T3, human PCSK9 (proprotein convertase …); assay: cell-based or functional assay
human PCSK9 D374Y mutant [10] = target: T2, human PCSK9 D374Y mutant; assay: cell-based or functional assay
human PCSK9 D374Y mutant [11] = target: T2, human PCSK9 D374Y mutant; assay: competition ELISA: biotinylated D374Y PCSK9 (20 ng/mL) pre-incubated with 11F1, binding to captured LDLR; average of 3
human PCSK9 D374Y mutant [12] = target: T2, human PCSK9 D374Y mutant; assay: competition ELISA: biotinylated D374Y PCSK9 (20 ng/mL) pre-incubated with 11F1, binding to captured LDLR

For B1, the “IC50 (read off the curve)” value (16F12, anti-PCSK9 huIgG4) was about 0.4 nM and the “IC50 (read off the curve)” value (31H4, anti-PCSK9 huIgG4) was about 0.6 nM.

For B2, the Kd [1] was 6.4 nM and the Kd [2] was 0.223 nM.

Work on B3 yielded a Kd [3] of 17 nM and a Kd [4] of 460 nM.

B4 was tested, and the “IC50 (read off the curve)” value (human PCSK9 D374Y mutant [5]) was about 10 nM, the IC50 [6] was 5.9 nM and the IC50 [7] was 4.4 to 8.1 nM. The “IC50 (read off the curve)” value [8] was about 5 nM, the binding result (furin (R&D Systems)) was “no binding (tested: 20 ug/ml)” and the “EC50, LDL uptake in HepG2 cells (BODIPY-LDL)” value [9] was 124 nM. The “EC50, LDL uptake in HepG2 cells (BODIPY-LDL)” value (human PCSK9 D374Y mutant [10]) was 35.3 nM, the IC50 (human PCSK9 D374Y mutant [11]) was 9.1 nM and the IC50 (human PCSK9 D374Y mutant [12]) was 7.3 to 10.1 nM.
